Results reported in PMC9325753, “Chilling-induced phosphorylation of IPA1 by OsSAPK6 activates chilling tolerance responses in rice”.
Substitutions are numbered along the chain they refer to.

Target: T1, GST-IPA1 (Oryza sativa, UniProt Q7EXZ2 1-417)
T1 sequence: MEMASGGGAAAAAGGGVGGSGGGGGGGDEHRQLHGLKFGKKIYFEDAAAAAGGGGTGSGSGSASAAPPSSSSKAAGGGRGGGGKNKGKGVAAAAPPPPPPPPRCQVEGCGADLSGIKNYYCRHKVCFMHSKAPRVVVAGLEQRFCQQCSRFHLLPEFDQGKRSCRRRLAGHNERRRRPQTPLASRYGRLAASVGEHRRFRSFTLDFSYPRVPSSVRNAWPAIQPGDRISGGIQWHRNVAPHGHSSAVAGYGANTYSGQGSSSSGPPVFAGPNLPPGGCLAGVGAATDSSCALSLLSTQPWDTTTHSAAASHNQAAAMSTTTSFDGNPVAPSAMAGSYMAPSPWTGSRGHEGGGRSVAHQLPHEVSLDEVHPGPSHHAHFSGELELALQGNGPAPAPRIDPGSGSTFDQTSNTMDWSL
Assay: EMSA; LightShift Chemiluminescent EMSA Kit (Thermo 20148) per manufacturer; buffer, salt, pH and temperature not stated
Conditions: protein: recombinant; tags: N-terminal GST (pGEX-4t-1); label: 5'-biotin on strand 1; blunt

B1: Biotin-P2 (OsCBF3 promoter) (dsDNA)
DNA 1: TACCTAGGTTTTAAGTTATAGTACTTACAATTTTTTGATGAG
DNA 2: CTCATCAAAAAATTGTAAGTACTATAACTTAAAACCTAGGTA
binding result: binds

B2: Biotin-P2-m (GTAC to ATAC) (dsDNA)
DNA 1: B1 DNA 1 with G21A
DNA 2: B1 DNA 2 with C22T
binding result: no binding
